Laboratory results from paper PMC3206940 (PLoS ONE, 2011).

Biological target: the molecule itself
Assay: SEC

B1: SARS-CoV 3C-like protease (3CL^pro) (enzyme)
chain: SGFRKMAFPSGKVEGCMVQVTCGTTTLNGLWLDDTVYCPRHVICTAEDMLNPNYEDLLIRKSNHSFLVQAGNVQLRVIGHSMQNCLLRLKVDTSNPKTPKYKFVRIQPGQTFSVLACYNGSPSGVYQCAMRPNHTIKGSFLNGSCGSVGFNIDYDCVSFCYMHHMELPTGVHAGTDLEGKFYGPFVDRQTAQAAGTDTTITLNVLAWLYAAVINGDRWFLNRFTTTLNDFNLVAMKYNYEPLTQDHVDILGPLSAQTGIAVLDMCAALKELLQNGMNGRTILGSTILEDEFTPFDVVRQCSGVTFQ
notes: also called 3CL^pro from SARS-CoV; main protease
Question: B1 was tested. Which “stoichiometry N” value did it give?
Answer: 2

B2: HCoV-OC43 3C-like protease (3CL^pro) (enzyme)
chain: SGIVKMVNPTSKVEPCVVSVTYGNMTLNGLWLDDKVYCPRHVICSASDMTNPDYTNLLCRVTSSDFTVLFDRLSLTVMSYQMRGCMLVLTVTLQNSRTPKYTFGVVKPGETFTVLAAYNGKPQGAFHVTMRSSYTIKGSFLCGSCGSVGYVIMGDCVKFVYMHQLELSTGCHTGTDFNGDFYGPYKDAQVVQLPIQDYIQSVNFLAWLYAAILNNCNWFIQSDKCSVEDFNVWALSNGFSQVKSDLVIDALASMTGVSLETLLAAIKRLKNGFQGRQIMGSCSFEDELTPSDVYQQLAGIKLQ
notes: also called 3CL^pro from HCoV-OC43; main protease; not shown: His6-SUMO or His6-MBP, N-terminal, cleaved
Question: For B2, which “stoichiometry N” value is on record?
Answer: 2
